# In patent US6001988, “High affinity nucleic acid ligands to lectins” (NeXstar Pharmaceuticals, Inc.):
# T1: P-selectin (PS-Rg) (Homo sapiens, UniProt P16109 P16109:42-321)
# T1 chain: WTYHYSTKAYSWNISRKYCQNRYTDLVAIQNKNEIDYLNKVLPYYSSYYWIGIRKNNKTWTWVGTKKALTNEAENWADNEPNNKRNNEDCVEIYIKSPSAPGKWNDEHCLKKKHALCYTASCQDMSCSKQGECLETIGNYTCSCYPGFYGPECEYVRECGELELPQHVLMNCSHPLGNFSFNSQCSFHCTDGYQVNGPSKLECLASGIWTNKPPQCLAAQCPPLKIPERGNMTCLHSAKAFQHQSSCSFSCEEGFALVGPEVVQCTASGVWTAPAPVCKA
# T2: E-selectin (ES-Rg) (Homo sapiens, UniProt P16581 P16581:22-556)
# T2 chain: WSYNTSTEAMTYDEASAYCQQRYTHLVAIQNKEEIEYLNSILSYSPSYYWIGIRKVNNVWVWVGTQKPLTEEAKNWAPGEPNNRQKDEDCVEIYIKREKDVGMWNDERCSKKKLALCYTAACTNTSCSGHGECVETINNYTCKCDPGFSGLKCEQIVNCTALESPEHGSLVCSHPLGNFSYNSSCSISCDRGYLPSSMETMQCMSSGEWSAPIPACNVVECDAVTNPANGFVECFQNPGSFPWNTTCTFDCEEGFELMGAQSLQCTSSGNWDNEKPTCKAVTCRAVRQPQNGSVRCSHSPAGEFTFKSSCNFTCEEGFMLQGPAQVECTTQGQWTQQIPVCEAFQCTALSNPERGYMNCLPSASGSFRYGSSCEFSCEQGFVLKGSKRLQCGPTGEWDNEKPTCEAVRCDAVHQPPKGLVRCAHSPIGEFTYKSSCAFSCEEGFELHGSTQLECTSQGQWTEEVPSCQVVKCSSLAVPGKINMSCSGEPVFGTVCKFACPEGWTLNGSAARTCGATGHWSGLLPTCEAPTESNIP
# T3: L-selectin (LS-Rg) (Homo sapiens, UniProt P14151 P14151:39-332)
# T3 chain: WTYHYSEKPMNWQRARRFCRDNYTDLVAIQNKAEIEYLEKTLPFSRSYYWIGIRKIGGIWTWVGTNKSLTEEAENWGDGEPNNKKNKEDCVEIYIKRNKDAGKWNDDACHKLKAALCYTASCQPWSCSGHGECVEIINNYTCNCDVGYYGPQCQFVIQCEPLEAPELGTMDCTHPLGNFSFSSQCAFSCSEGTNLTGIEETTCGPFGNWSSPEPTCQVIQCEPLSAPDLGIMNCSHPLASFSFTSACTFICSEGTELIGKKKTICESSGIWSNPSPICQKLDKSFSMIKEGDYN
# T4: wheat germ agglutinin (WGA) (Triticum vulgare, UniProt P10968 P10968:27-197)
# T4 sequence: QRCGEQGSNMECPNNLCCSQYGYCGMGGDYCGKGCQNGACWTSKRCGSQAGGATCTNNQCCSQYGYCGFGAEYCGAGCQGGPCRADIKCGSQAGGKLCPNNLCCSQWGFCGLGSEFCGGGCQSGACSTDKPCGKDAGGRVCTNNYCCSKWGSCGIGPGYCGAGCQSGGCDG
# T5: Ulex europaeus lectin UEA-II (Ulex europaeus, UniProt P22973 P22973:1-249)
# T5 sequence: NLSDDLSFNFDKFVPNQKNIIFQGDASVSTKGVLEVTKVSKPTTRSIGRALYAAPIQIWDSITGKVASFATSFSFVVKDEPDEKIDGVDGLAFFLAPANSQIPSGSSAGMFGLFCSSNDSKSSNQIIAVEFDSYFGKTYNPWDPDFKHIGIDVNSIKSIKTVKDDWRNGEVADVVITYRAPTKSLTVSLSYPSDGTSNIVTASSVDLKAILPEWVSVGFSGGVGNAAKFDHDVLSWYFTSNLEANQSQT
# Legend:
# P-selectin (PS-Rg) [1] = molecular target: T1, P-selectin (PS-Rg); assay: filter; room temp, Ca/Mg buffer; conditions: tags: lectin, EGF and first two CRD domains fused to human IgG1 Fc (provided by A. Varki); chain copies: 2 (dimeric Fc chimera, inferred)
# Procedure: (§1) RNA was reverse transcribed into cDNA by AMV reverse transcriptase at 48° C. for 60 min in 50 mM Tris-Cl pH (8.3), 60 mM NaCl, 6 mM Mg(OAc)_2, 10 mM DTT, 100 pmol DNA primer, 0.4 mM each of dNTPs, and 0.4 unit/µl AMV RT. […] C) Nitrocellulose Filter Partitioning As described in SELEX Patent Applications, the nitrocellulose filter partitioning method was used to determine the affinity of RNA ligands for WGA and for other proteins. Filter discs (nitrocellulose/cellulose acetate mixed matrix, 0.45 µm pore size, Millipore; or pure nitrocellulose, 0.45 µm pore size, Bio-Rad) were placed on a vacuum manifold and washed with 4 ml of HBSS buffer under vacuum. Reaction mixtures, containing ^32P labeled RNA pools and unlabeled WGA, were incubated in HBSS for 10 min at room temperature, filtered, and then immediately washed with 4 ml HBSS. The filters were air-dried and counted in a Beckman LS6500 liquid scintillation counter without fluor. WGA is a homodimer, molecular weight 43.2 kD, with 4 GlcNAc binding sites per dimer. For affinity calculations, we assume one RNA ligand binding site per monomer (two per dimer). The monomer concentration is defined as 2 times the dimer concentration. The equilibrium dissociation constant, K_d, for an RNA pool or specific ligand that binds monophasically is given by the equation $$K_d=[P_f][R_f]/[RP]$$
# (§2) The affinity of representative cloned ligands for LS-Rg, ES-Rg, PS-Rg, CD22β-Rg and WGA was determined by nitrocellulose partitioning and the results shown in Table XIV. The ligands are highly specific for L-selectin.
# (§3) *Kds were determined at room temperature.
# E-selectin (ES-Rg) [2] = molecular target: T2, E-selectin (ES-Rg); assay: filter; room temp, Ca/Mg buffer; conditions: tags: extracellular domain fused to human IgG1 Fc (provided by A. Varki); chain copies: 2 (dimeric Fc chimera, inferred)
# Procedure: as §1, §2, §3
# L-selectin (LS-Rg) [3] = molecular target: T3, L-selectin (LS-Rg); assay: filter; room temp; 2.1 nM at 37 C; conditions: tags: human IgG2 Fc fusion (provided by A. Varki); label: 32P
# [4] = molecular target: T4, wheat germ agglutinin (WGA); assay: filter; HBSS, room temp; printed as 11.3, SEQ 54; conditions: tags: free lectin, E Y Laboratories; label: 32P
# Procedure: (§4) The specifically eluted fraction was processed for use in the following round. Fractions eluted from immobilized WGA were heated at 90° C. for 5 minutes in 1% SDS, 2% β-mercaptoethanol and extracted with phenol/chloroform. RNA was reverse transcribed into cDNA by AMV reverse transcriptase at 48° C. for 60 min in 50 mM Tris-Cl pH (8.3), 60 mM NaCl, 6 mM Mg(OAc)_2, 10 mM DTT, 100 pmol DNA primer, 0.4 mM each of dNTPs, and 0.4 unit/µl AMV RT. […] C) Nitrocellulose Filter Partitioning As described in SELEX Patent Applications, the nitrocellulose filter partitioning method was used to determine the affinity of RNA ligands for WGA and for other proteins. Filter discs (nitrocellulose/cellulose acetate mixed matrix, 0.45 µm pore size, Millipore; or pure nitrocellulose, 0.45 µm pore size, Bio-Rad) were placed on a vacuum manifold and washed with 4 ml of HBSS buffer under vacuum. Reaction mixtures, containing ^32P labeled RNA pools and unlabeled WGA, were incubated in HBSS for 10 min at room temperature, filtered, and then immediately washed with 4 ml HBSS. The filters were air-dried and counted in a Beckman LS6500 liquid scintillation counter without fluor. […]
# The dissociation constants for representative members of families 1–9 and orphan ligands were determined by nitrocellulose filter binding experiments and are listed in Table III. […]
# [5] = molecular target: T5, Ulex europaeus lectin UEA-II; assay: filter; HBSS, room temp; conditions: tags: E Y Laboratories; label: 32P; hairpin
# Procedure: as §4, with “fluor. WGA is a homodimer, molecular weight 43.2 kD, with 4 GlcNAc binding sites per dimer. For affinity calculations, we assume one RNA ligand binding site per monomer (two per dimer).” for “fluor.”
# [6] = molecular target: T4, wheat germ agglutinin (WGA); assay: filter; HBSS, room temp; 11.4 nM in Table IV; conditions: tags: free lectin, E Y Laboratories; label: 32P; hairpin
# Procedure: as §4, with “fluor. WGA is a homodimer, molecular weight 43.2 kD, with 4 GlcNAc binding sites per dimer. For affinity calculations, we assume one RNA ligand binding site per monomer (two per dimer).” for “fluor.”
# L-selectin (LS-Rg) [7] = molecular target: T3, L-selectin (LS-Rg); assay: filter; 4 C, HSMC (Ca/Mg); biphasic, fraction 0.68, low affinity Kd 60 nM; 1.0 nM at room temp; conditions: tags: human IgG2 Fc fusion (provided by A. Varki); label: 32P; pseudoknot
# Procedure: (§5) As described in SELEX Patent Applications, the nitrocellulose filter partitioning method was used to determine the affinity of RNA ligands for LS-Rg and for other proteins. Filter discs (nitrocellulose/cellulose acetate mixed matrix, 0.45 um pore size, Millipore) were placed on a vacuum manifold and washed with 2 ml of HSMC buffer under vacuum. Reaction mixtures, containing ^32P labeled RNA pools and unlabeled LS-Rg, were incubated in HSMC for 10–20 min at 4° C., room temperature or 37° C., filtered, and then immediately washed with 4 ml HSMC at the same temperature. The filters were air-dried and counted in a Beckman LS6500 liquid scintillation counter without fluor.
# (§6) The dissociation constants for representative ligands from rounds 13 and 14, including all orphans, were determined by nitrocellulose filter binding experiments and are listed in Table IX. These calculations assume two RNA ligand binding sites per chimera. The affinity of random RNA cannot be reliably determined but is estimated to be approximately 10 µM.
# E-selectin (ES-Rg) [8] = molecular target: T2, E-selectin (ES-Rg); assay: filter; 4 C, HSMC; conditions: tags: human IgG1 Fc fusion (provided by A. Varki), chain copies: 2, label: 32P
# Procedure: as §5
# (§7) The affinity of L-selectin ligands to ES-Rg, PS-Rg and CD22β-Rg were determined by nitrocellulose partitioning. […] In general, a ligand's affinity for ES-Rg is 10^3-fold lower and that for PS-Rg is about 10^4-fold less than for LS-Rg. […] The specificity of oligonucleotide ligand binding contrasts sharply with the binding of cognate carbohydrates by the selectins and confirms the assertion that SELEX ligands will have greater specificity than carbohydrate ligands.
# (§8) *Dissociation constants were determined at 4° C. in HSMC buffer.
# P-selectin (PS-Rg) [9] = molecular target: T1, P-selectin (PS-Rg); assay: filter; 4 C, HSMC; conditions: tags: human IgG1 Fc fusion (provided by A. Varki); chain copies: 2; label: 32P
# Procedure: as §5, §7, §8
# L-selectin (LS-Rg) [10] = molecular target: T3, L-selectin (LS-Rg); assay: filter; 4 C, HSMC; 1.5 nM at room temp; conditions: tags: human IgG2 Fc fusion (provided by A. Varki); label: 32P
# Procedure: as §5, §6
# L-selectin (LS-Rg) [11] = molecular target: T3, L-selectin (LS-Rg); assay: filter; 4 C, HSMC; biphasic, fraction 0.65, low affinity Kd 14.5 nM; 142 nM at room temp; conditions: tags: human IgG2 Fc fusion (provided by A. Varki); label: 32P
# Procedure: as §5, §6
# L-selectin (LS-Rg) [12] = molecular target: T3, L-selectin (LS-Rg); assay: filter; 4 C, HSMC; 5.5 nM at room temp; conditions: tags: human IgG2 Fc fusion (provided by A. Varki); label: 32P
# Procedure: as §5, §6
# L-selectin (LS-Rg) [13] = molecular target: T3, L-selectin (LS-Rg); assay: filter; 4 C, HSMC; 15.9 nM at room temp; conditions: tags: human IgG2 Fc fusion (provided by A. Varki); label: 32P; hairpin
# Procedure: as §5, §6
binder,measurement,setting,value
122 (ssDNA) DNA: CTACCTACGATCTGACTAGCGCAACGTGGCCCCGTTTAGCTCATTTGACCGTTCCATCCGGCTTACTCTCATGTAGTTCC,Kd,P-selectin (PS-Rg) [1],420 nM
same,Kd,E-selectin (ES-Rg) [2],400 nM
same,Kd,L-selectin (LS-Rg) [3],1.8 nM
"11.30 (ssRNA, 2'-NH2 all C and U) RNA: GGGAAAAGCGAAUCAUACACAAGACGGUUGCUGAACAGAACGUGAGUCUUGGUGAGUCGCACAGAUUGUCCUGCUCCGCCAGAGACCAACCGAGAA",Kd,[4],56 nM
"6.8 (ssRNA, 2'-NH2 all C and U) RNA: GGGAAAAGCGAAUCAUACACAAGAAAGGGAUGGGAUUGGGACGAGCGGCCAAGACUCGGCGGGAACGAAGGGUCCGCUCCGCCAGAGACCAACCGAGAA",Kd,[5],4400 nM
same,Kd,[6],11 nM
"F14.20 (ssRNA, 2'-NH2 all C and U) RNA: GGGAGGACGAUGCGGUAACAACAAUCAAGGCGGGUUCACCGCCCCAGUAUGAGUGCAGACGACUCGCCCGA",Kd,L-selectin (LS-Rg) [7],0.058 nM
same,Kd,E-selectin (ES-Rg) [8]; pseudoknot,70 nM
"F13.55 (ssRNA, 2'-NH2 all C and U) RNA: GGGAGGACGAUGCGGUGUCUCUCCUGACUUUUAUUCUUAGUUCGAGCUGUCCUGGCAGACGACUCGCCCGA",Kd,P-selectin (PS-Rg) [9],5800 nM
same,Kd,E-selectin (ES-Rg) [8],49 nM
same,Kd,L-selectin (LS-Rg) [10],0.062 nM
"F14.53 (ssRNA, 2'-NH2 all C and U) RNA: GGGAGGACGAUGCGGUCCCAGAGUCCCGUGAUGCGAAGAAUCCAUUAGUACCAGACAGACGACUCGCCCGA",Kd,P-selectin (PS-Rg) [9],5200 nM
same,Kd,E-selectin (ES-Rg) [8],355 nM
same,Kd,L-selectin (LS-Rg) [11],0.097 nM
"F13.42 (ssRNA, 2'-NH2 all C and U) RNA: GGGAGGACGAUGCGGGAUGUAAAUGACAAAUGAACCUCGAAAGAUUGCACACUCCAGACGACUCGCCCGA",Kd,E-selectin (ES-Rg) [8],4400 nM
same,Kd,L-selectin (LS-Rg) [12],2 nM
"F14.21 (ssRNA, 2'-NH2 all C and U) RNA: GGGAGGACGAUGCGGUUGAGAUGUGUGAGUACAAGCUCAAAAUCCCGUUGGAGGCAGACGACUCGCCCGA",Kd,L-selectin (LS-Rg) [13],2.3 nM
same,Kd,E-selectin (ES-Rg) [8]; hairpin,2600 nM
